The values that follow come from paper PMC3128119.

This series addresses T1, SmeT (UniProt Q8KLP4 1-219).
T1 sequence: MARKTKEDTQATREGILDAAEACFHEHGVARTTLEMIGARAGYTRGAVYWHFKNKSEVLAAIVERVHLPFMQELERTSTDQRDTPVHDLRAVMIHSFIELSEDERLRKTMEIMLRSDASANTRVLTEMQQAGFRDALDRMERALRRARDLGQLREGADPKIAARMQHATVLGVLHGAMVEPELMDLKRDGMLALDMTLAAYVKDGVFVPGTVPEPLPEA
Put plainly: EMSA; 0.2 uM SmeT, 2 nM DNA, no triclosan, 10 mM MgCl2; EMSA: 10 mM Tris-HCl pH 7.2, 50 mM KCl, 10 mM MgCl2, 1 mM EDTA, 50 ug/ml BSA, 1 mM DTT, 5% glycerol, 100 ug/ml poly(dI-dC), room temperature 20 min (+15 min with biocide); 6% gel at 4 C. Particulars: protein: recombinant; tags: none stated after intein-CBD self-cleavage (pTYB1); chain copies: 2; label: 5' 32P; blunt. For orientation: In EMSA bound probe runs differently from free probe, usually more slowly.

B1: 30-bp smeT operator (dsDNA)
DNA 1: GTTTACAAACAAACAAGCATGTATGTATAT
DNA 2: ATATACATACATGCTTGTTTGTTTGTAAAC
As for B1, the binding result is recorded as “binds”.
